Experiments:
[1] = molecular target: Escherichia coli β clamp (beta subunit of DNA polymerase III holoenzyme) (UniProt P0A988); experiment: fluorescence anisotropy; labeled peptide
[2] = molecular target: Escherichia coli β clamp (beta subunit of DNA polymerase III holoenzyme) (UniProt P0A988); experiment: fluorescence (fluorophore-labeled β titrated with peptide); ±0.6; labeled β
[3] = molecular target: Escherichia coli β clamp (beta subunit of DNA polymerase III holoenzyme) (UniProt P0A988); experiment: fluorescence (fluorophore-labeled β titrated with peptide); ±0.9; labeled β

Escherichia coli β clamp (beta subunit of DNA polymerase III holoenzyme), sequence (P0A988 whole entry): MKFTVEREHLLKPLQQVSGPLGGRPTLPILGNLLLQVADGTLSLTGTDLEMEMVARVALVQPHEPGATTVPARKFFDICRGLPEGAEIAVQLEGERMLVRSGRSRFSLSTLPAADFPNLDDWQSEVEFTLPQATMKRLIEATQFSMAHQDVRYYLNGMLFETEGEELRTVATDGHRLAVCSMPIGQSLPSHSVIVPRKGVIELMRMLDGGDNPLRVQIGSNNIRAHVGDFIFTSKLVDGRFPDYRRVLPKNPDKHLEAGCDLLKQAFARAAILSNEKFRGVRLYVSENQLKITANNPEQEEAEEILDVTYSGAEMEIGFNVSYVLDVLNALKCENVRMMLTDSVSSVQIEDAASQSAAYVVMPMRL
Peptide corresponding to C-terminal residues of Streptococcus pyogenes Pol C, sequence (A2RGI3 1444-1465): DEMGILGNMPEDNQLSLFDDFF
C-terminal peptide corresponding to Staphylococcus aureus Pol C, sequence (A6QGG4 1419-1438): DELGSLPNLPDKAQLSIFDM

Substance	Kd [1]	Kd [2]	Kd [3]
Peptide corresponding to C-terminal residues of Streptococcus pyogenes Pol C	1.5 µM	2.5 µM	
C-terminal peptide corresponding to Staphylococcus aureus Pol C	5.9 µM		7.2 µM

Source: US20090004675A1, “Method of Identifying Compounds for Bacterial Growth Modulation” (priority 2004, published 2009)
